This experiment has as its target T1, cytoskeletal associated protein 4 (CKAP4), endogenous in HeLa or normal bladder epithelial cells (Homo sapiens, UniProt Q07065 1-602, reversibly palmitoylated on cysteine 100).
T1 sequence: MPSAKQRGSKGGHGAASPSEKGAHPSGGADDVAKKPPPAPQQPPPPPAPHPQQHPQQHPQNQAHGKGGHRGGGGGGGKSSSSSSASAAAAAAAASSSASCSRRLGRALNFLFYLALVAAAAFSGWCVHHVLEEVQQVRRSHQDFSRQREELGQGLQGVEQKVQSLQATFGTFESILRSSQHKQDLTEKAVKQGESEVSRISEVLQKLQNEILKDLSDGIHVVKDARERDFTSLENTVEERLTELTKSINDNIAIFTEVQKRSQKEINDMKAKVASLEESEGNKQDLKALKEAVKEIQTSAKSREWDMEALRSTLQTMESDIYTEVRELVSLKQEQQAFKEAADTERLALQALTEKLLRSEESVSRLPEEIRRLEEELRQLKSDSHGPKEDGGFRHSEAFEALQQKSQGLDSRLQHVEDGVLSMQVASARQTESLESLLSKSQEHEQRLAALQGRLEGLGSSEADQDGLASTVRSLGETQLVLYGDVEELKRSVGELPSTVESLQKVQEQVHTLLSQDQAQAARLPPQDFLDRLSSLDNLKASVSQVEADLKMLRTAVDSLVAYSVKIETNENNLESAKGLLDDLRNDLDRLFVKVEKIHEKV
Briefly: cell-based or functional assay.

B1: antiproliferative factor (APF), synthetic (peptide)
peptide: TVPAAVVVA
modifications: sialic acid α-2,3 linked to galactose P1-3-N-acetylgalactosamine, which is α-O-linked to the N-terminal threonine residue of the nonapeptide (printed as '3 carbohydrate moieties-T-V-P-A-A-V-V-V-A')
For the molecule B1, the “abundance of CKAP4 in the nucleus (nuclear fractionation and Western blot, HeLa cells)” value was found to be 5 fold.

Source of the values: patent US20110244493A1 (COMMONWEALTH MEDICAL COLLEGE, published 2011).
